Reference: doi:10.1101/2019.12.20.884148

Target: Galectin-3 (R&D Systems) (UniProt P17931)
Experiment: SPR

UniProt P17931, sequence (P17931 whole entry): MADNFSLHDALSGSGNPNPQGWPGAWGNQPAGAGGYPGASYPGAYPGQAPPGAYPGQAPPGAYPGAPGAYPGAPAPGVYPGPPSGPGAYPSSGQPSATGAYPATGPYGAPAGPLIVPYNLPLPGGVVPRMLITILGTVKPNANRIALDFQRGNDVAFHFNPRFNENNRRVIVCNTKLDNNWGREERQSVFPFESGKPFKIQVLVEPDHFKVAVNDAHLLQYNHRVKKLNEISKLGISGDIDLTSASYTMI

Kd: 3.8 µM
Substance: Bovine lubricin (bPRG4) (natural protein)
